For series [1], the system named is Primary articular porcine chondrocytes. The series is described as follows: Porcine chondrocyte proliferation with or without IL1α challenge (Example 4). The series is classed as cell-based, pig. Conditions: 100 ng/mL; for increase in the cell number versus control (medium, no IL1α): 8 days of culture; for stimulation of proliferation versus control (medium, IL1α 10 ng/mL): 8 days. The method, then:
Porcine chondrocytes were isolated from the cartilage of a femoral head of a pig hip (pigs were approximately one year old). After dissection of the joints, the cartilage was harvested and digested for 45 minutes with collagenase 0.25% ( 1/10 dilution of collagenase NBG4 2.5% in HAM's F12) at room temperature. The loosened cells were discarded and the cartilage further digested overnight with collagenase 0.1% ( 1/25 dilution of collagenase NBG4 2.5% in HAM's F12) at 37° C. to extract the chondrocytes. For this study, the chondrocytes were cultured in a monolayer.
Primary articular porcine chondrocytes were stimulated or not with 10 ng/mL IL1α and were either treated immediately or 6 hours later with anakinra 100 ng/mL and/or trFGF-18 100 ng/mL. Each condition was performed in 4 or 6-plicate. As a control, cells were also cultured with anakinra alone, trFGF-18 alone or in the absence of any treatment (medium).
Pre-culture: After cell isolation porcine chondrocytes were inoculated at 20,000 cells/cm^2 and cultivated for one week in complete HAM's F12. Cells were then harvested with accutase, counted and used as described below.
For cells treated directly with anakinra: Chondrocytes were inoculated in a 24-well plate at 15,000 cells/well in 0.5 mL of complete HAM's F12. Then 0.25 mL of trFGF-18 400 ng/mL and/or 0.25 mL of anakinra 400 ng/mL were added to the cells. In the challenged samples, 10 μL of IL1α at 1,000 ng/mL were also added to the cells. trFGF-18, anakinra and IL1α were all diluted in complete HAM's F12. The final volume in the culture well was adjusted to 1 mL with complete HAM's F12. Final concentrations were 10 ng/mL IL1α, 100 ng/mL trFGF-18 and 100 ng/mL anakinra and the total culture time was eight days. A complete medium change was performed after four days. N=4.
For cells treated with anakinra and trFGF-18 6 hours after the IL1α challenge: Chondrocytes were inoculated in a 24-well plate at 15,000 cells/well in 1 mL of complete HAM's F12 containing or not containing IL1α 10 ng/mL. After 6 hours the medium was removed and replaced with 0.25 mL trFGF-18 400 ng/mL and/or 0.25 mL of anakinra 400 ng/mL. In the challenged samples, 0.25 mL of IL1α at 40 ng/mL was also added to the cells. trFGF-18, anakinra and IL1α were all diluted in complete HAM's F12. The final volume in the culture well was adjusted to 1 mL with complete HAM's F12. Final concentrations were 10 ng/mL IL1α, 100 ng/mL trFGF-18 and 100 ng/mL anakinra and the total culture time was eight days. A complete medium change was performed after four days. N=6.
After eight days of culture, cells were harvested with accutase and resulting cell suspensions were analyzed for cell concentration and cell viability with a ViCell™ cell analyzer (from Beckman Coulter). […]

For series [2], the system named is full-thickness defect in the articular cartilage of the trochlear groove. The format is in vivo, New Zealand White rabbits. The text has this:
60 adult male, naïve, New Zealand White rabbits were used for this study. Animals were approximately 3-4 months of age. Rabbits underwent surgery for creation of the cartilage defect right knee. A 2 mm by 6 mm full-thickness defect was made in the articular cartilage of the trochlear groove. The microfracture was created using 18 gauge needles. Two 3 mm deep microfractures were made through the subchondral bone at the base of the defect, one proximally and one distally. Each microfracture hole was approximately 1.5 mm in diameter and the holes separated by 2 mm. The experiment consisted of the following six treatment groups, with 10 animals in each group for a total of 60 rabbits (Table 2). Rabbits in Groups 3, 4, 5 and 6 were treated with intra-articular rhFGF-18 in either one cycle of three weekly injections of 100 μg of rhFGF-18 (Group 3 and 5) or one cycle of three monthly injections of 100 μg of rhFGF-18 (Group 4 and 6). All animals were euthanized and necropsied 6 months after surgery. [table]

The test system of series [3] is medial meniscal tear in the right knee joint. The format is in vivo, Male Lewis rats. The method, then: After the sacrifice, the right knee was removed and decalcified in 5% formic acid for 4-6 d before cutting in half in the frontal plane and embedding in paraffin wax. Three sections were cut in 200 μm steps, stained with toluidine blue, and analyzed using ImagePro Plus™ software (Media Cybernetics). In scoring the three sections of the joint, the worst-case scenario for the two halves on each slide was determined for the cartilage lesion as the cartilage degeneration width (μm). This reflects the areas of tibial cartilage lesion in which both chondrocyte and proteoglycan loss extend 50% of the cartilage thickness. The measurement was taken over the area of greatest lesion severity in each of the three zones across the tibial surface.
A treatment group Mean±SE for each score and measurement was determined.
Data was analyzed using a one-way analysis of variance (1-way ANOVA) or Kruskal-Wallis test (non-parametric), along with an appropriate multiple comparison post-test. Right knee caliper measurements were compared to left using a Student's t-test. Unless indicated, Bolder BioPATH, Inc. performs statistical analysis on raw (untransformed) data only. […] Significance for all tests was set at p≦0.05. Comparisons were made between each group and the vehicle control group, as well as between pairs
Male Lewis rats underwent surgery (under anesthesia with Isoflurane) to induce a medial meniscal tear in the right knee joint. Animals were dosed IA with vehicle or FGF-18 on one of two different regimens (see table below), then terminated on day 105. Knees had caliper measurements taken at baseline and days 21, 42, 56, 84, and 105. Serum was evaluated for α2 macroglobulin levels at baseline and on days 21, and 105, as well as one week after the final dose (day 42 or 84). Right knees were collected for histopathology evaluation.

B1: trFGF-18: recombinant truncated form of human FGF-18 (170 amino acids, SEQ ID NO: 2), produced in E. coli (protein)
chain: MEENVDFRIHVENQTRARDDVSRKQLRLYQLYSRTSGKHIQVLGRRISARGEDGDKYAQLLVETDTFGSQVRIKGKETEFYLCMNRKGKLVGKPDGTSKECVFIEKVLENNYTALMSAKYSGWYVGFTKKGRPRKGPKTRENQQDVHFMKRYPKGQPELQKPFKYTTVTK
modifications: Recombinant truncated FGF-18(trFGF-18)
Regarding B1, the “increase in the cell number versus control (medium, no IL1α)” value in series [1] (first experiment (direct treatment, N=4)) worked out at 11.25 fold; in series [1] (second experiment (6-hour delay, N=6)), 7.75 fold. The “stimulation of proliferation versus control (medium, IL1α 10 ng/mL)” value was 2.38 fold in series [1] (first experiment (direct treatment)) and 2.44 fold in series [1] (second experiment (6-hour delay)). Also, in series [2] (Group 4: no microfracture, monthly x3, nearly normal to slightly roughened or granular cartilage), the “animals with intercondylar groove filled with cartilage” value is reported as 6/9. Also, the “animals with intercondylar groove filled” value in series [2] (Group 6: microfracture, monthly x3, finely granular to granular cartilage) is listed as 3/10. The “animals with groove 50% filled to nearly completely filled” value in series [2] (Group 6: microfracture, monthly x3, granular to coarsely granular cartilage) is listed as 7/10. Further, in series [2] (no microfracture, monthly for three months, significant), the “increase in defect fill percentages” value turned out to be 48%. The necropsy findings entry in series [2] (rabbit, in vivo) is “stimulation of osteophytes on the medial and lateral trochlear ridges”. For the same molecule, in series [3] (10 μg IA, day 105), the “extent of injury over the tibial surface (collagen damage), histopathology” value is “generally increased”. Moreover, in series [3] (10 μg IA, day 105), the “severity of tibial injury, histopathology” value is on record as “reducing its severity”. For the same molecule, the “structural benefit (total joint score, substantial tibial cartilage degeneration width)” value in series [3] (monthly injection scheme versus other regimens, 10 μg IA) is recorded as “highest”. In addition, the overall morphology entry in series [3] (three injections once monthly (Group 5; days 21, 49, 77)) is reported as “best overall morphology”.

Source of the values: US9889179B2, “FGF-18 compound dosing regimen” (MERCK PATENT GMBH, priority 2014, dated 2018).
